Assay [1] has as its system PAR. The assay is described as follows: PAR overlay assay of full length AIF and mutants. In kind it is binding. The procedure: (§1) The following experiment was performed to confirm whether AIF in fact binds to PAR. Applicants performed 3 trials of an overlay assay on recombinant AIF with affinity-purified biotin-labeled PAR. Histone H3, which binds to PAR with high affinity, was included as a positive control and bovine serum albumin (“BSA”) was included as a negative control, as described by P. Chang et al. (Nat Cell Bio, 2005). FIG. 1B depicts three photos side by side for gels representative of all trials for these overlay assays. […] Thus, Applicants took the results of these two tests as confirming that AIF binds to PAR in vitro.
To further study these potential AIF PBMs, Applicants performed the following experiment to examine the effect of mutating AIFm amino acids 222-244, 441-463, and/or 567-592 to poly-alanine on the ability of AIF to bind PAR. FIG. 6 comprises black and white photographs of representative gels from an overlay assay of His-tagged WT-AIF, AIFm222-244, AIFm441-463, AIFm567-592, AIFΔ567-592 (i.e., a mutant lacking AAs 567-592), and AIF(K254A, R264A) (i.e., mutating K to A at 254 and R to A at 264) mutants with ^32P-labeled automodified PARP-1 (equivalent to 100 nM of PAR), purified ^32P-labeled PAR (100 nM), or purified ^32P-labeled PAR with either a 100-fold excess of DNA or cold PAR. […] The same can be assumed to corresponding sequences for other species, such as those identified in FIG. 4.
Additionally, to exclude the possibility that PAR polymer is binding to AIF through its DNA-binding domain, PAR polymer binding was assessed against the full length AIF DNA-binding mutant AIFK254A;R264A as described by H Cande et al. (Nat Struct Biol, 2002).
Finally, Human AIF (“AIFH”) is known to bind to DNA through a groove between the FAD-binding domain (“D1”) and C-terminal domain (“D3”). A mutant form of AIFH in which lysine 255 is substituted with alanine and arginine 265 is substituted with alanine (AIFK255A;R265A) completely lacks DNA binding. To investigate the possible contribution of the AIF DNA-binding domain to PAR binding, Applicants assessed PAR binding to AIFm mutated in the same way (AIFK254A;R264A). […] Thus, Applicants concluded that the AIF PAR-binding site is separable from its DNA-binding site, meaning that such binding could be inhibited by genetically modifying AIF without impacting the natural DNA binding capabilities of AIF or potentially by otherwise inhibiting the binding action of the PBMs.

For assay [2], the system named is Hq mouse cortical neuronal cultures. The assay is described as follows: AIF translocation to the nucleus in Hq cortical neurons. Conditions: 100 nM staurosporine, 24 hours. In kind it is cell-based. As for the experimental part:
Unless otherwise set forth herein, immunocytochemistry, immunohistochemistry and confocal microscopy as referenced in the examples entailed the following materials and procedures. […] AIF was visualized by 2 μg/ml mouse anti-Flag/Cyt AffiniPure Donkey Anti-Mouse IgG or rabbit anti-AIF/Cy3 AffiniPure Donkey Anti-Rabbit IgG. Immunohistochemistry was performed using the antibody against Flag. Immunofluorescence analysis thereafter was carried out by using a LSM510 confocal laser scanning microscope (obtained from Carl Zeiss Microlmaging) as described by H. Wang et al. (J. Neurosci, 2004).
Again, AIF translocation to the nucleus was monitored two hours after NMDA (500 μM, 5 minutes) treatment sufficient to initiate parthanatos in wild-type cells.

The subject of assay [3] is PAR. The assay is described as follows: in vitro PAR-binding assay, twenty percent TBE-PAGE analysis. As for the experimental part: To begin, 300 nM of purified WT-AIF or Pbm-AIF (i.e., AIF mutated in its PAR binding region) were incubated with ^32P-labeled PAR for 10 minutes at room temperature. Thereafter, samples were incubated with AIF antibody-linked protein G slurry for 1 hour. Samples were washed two times with PBS and boiled with 1× Laemmli sample buffer (obtained from BIO-RAD). Each soluble fraction was resolved in 20% TBE-PAGE. The gel was heat dried and developed using the Typhoon 9400 Imager.
(§2) To further ascertain whether full length recombinant AIF-Tm produced above (henceforth named “Pbm-AIF”) binds PAR, Applicants performed three iterations of an EMSA assay for PAR binding with recombinant WT-AIF and Pbm-AIF, using histone H3 as a control. […] FIG. 9 comprises a black and white photograph of EMSA gels showing representative results for WT-AIF and Pbm-AIF using ^32P-labeled PAR.

Assay [4] concerns PAR. The assay is described as follows: EMSA with 32P-labeled PAR. In kind it is binding. The procedure: as §1, §2
The test system of another assay is isolated HeLa nuclei. The assay is described as follows: nuclear shrinkage assay. In kind it is biochemical. The following applies: non-tagged proteins incubated with isolated HeLa nuclei. The procedure: Nuclei were obtained by purification from HeLa cells as described previously by A. Mandir et al. (J Neurosci, 2000). For the assay, purified nuclei were incubated with recombinant WT-AIF or Pbm-AIF (20 ng/ml) in the presence of ATP (2 mM), phosphocreatine (20 mM) and creatine kinase (50 μg/ml) for 90 minutes at 37° C. Nuclei were stained by DAPI and examined by fluorescence microscopy.
FIG. 11D comprises an array of color photographs showing the result of fluorescence microscopy for various cultures, as labeled in the figure, following DAPI staining. […] FIG. 11E is a chart reporting the result of a quantification of nuclei treated by WT-AIF, Pbm-AIF, and control (“CTL”), using Caspase 3 as a positive control.

For assay [5], the system named is PAR. The assay is described as follows: biotin-labeled PAR pull-down assay. In kind it is binding. The following applies: biotin-labeled PAR-conjugated NeutrAvidin beads. The text has this:
To confirm that Pbm-AIF fails to bind PAR, Applicants also performed four trials of biotin-labeled PAR pull-down assays on WT-AIF, Pbm-AIF, and histone H3. For this experiment, the pull-down assay used biotin-labeled PAR-conjugated NeutrAvidin beads. FIG. 10A comprises a composite black and white photograph depicting typical gels obtained in this pull-down assay.

In a further assay the test system is isolated mitochondria. The assay is described as follows: AIF binding to isolated mitochondria. The following applies: for binding to mitochondria versus concentration: 0.1 ng/μl to 120.5 ng/μl, 30 minutes, room temperature; for binding percentage to mitochondria over time: 2.5 ng/μl, mitochondria 200 μg/ml, after 5 minutes; for depletion from the supernatant by mitochondria: untreated mitochondria, absence of PAR. As for the experimental part: One commonly accepted estimate is that approximately 20%-30% of AIF resides on the cytosolic side of the outer membrane of mitochondria, where it is poised to be rapidly released by PAR following PARP-1 activation. Applicants thus wanted to perform tests of AIF binding to mitochondria determine how readily purified WT-AIF and Pbm-AIF bind to mitochondria in a time- and concentration-dependent manner. Specifically, recombinant WT-AIF (2.5 ng/μl) and Pbm-AIF (2.5 ng/μl) were incubated with isolated mitochondria (200 μg/ml) for 1 minute, 5 minutes, 10 minutes, 15 minutes, 20 minutes or 30 minutes. […] The results of this portion of the experiment is provided by the graph of FIG. 15B.
To investigate the mechanism underlying mitochondrial AIF release following PARP-1 activation, Applicants incubated isolated mitochondria with purified non-tagged forms of AIF in the presence or absence of PAR and followed this by centrifugation to remove the mitochondria. Detection of AIF remaining in the supernatant was thereafter performed through immunoblot analysis.
The supernatant collected in the experiments of Example 16 were also analyzed for the presence of Tom20 and cyclochrome c.

Where two headings read alike, the source gives them in different places.

B1: Pbm-AIF: full length mouse AIF mutant R588A;K589A;K592A (PAR binding motif mutant) (protein)
chain: MFRCGGLAGAFKQKLVPLVRTVYVQRPKQRNRLPGNLFQQWRVPLELQMARQMASSGSSGGKMDNSVLVLIVGLSTIGAGAYAYKTIKEDQKRYNERVMGLGLSPEEKQRRAIASATEGGSVPQIRAPSHVPFLLIGGGTAAFAAARSIRARDPGARVLIVSEDPELPYMRPPLSKELWFSDDPNVTKTLQFRQWNGKERSIYFQPPSFYVSAQDLPNIENGGVAVLTGKKVVHLDVRGNMVKLNDGSQITFEKCLIATGGTPRSLSAIDRAGAEVKSRTTLFRKIGDFRALEKISREVKSITVIGGGFLGSELACALGRKSQASGIEVIQLFPEKGNMGKILPQYLSNWTMEKVKREGVKVMPNAIVQSVGVSGGRLLIKLKDGRKVETDHIVTAVGLEPNVELAKTGGLEIDSDFGGFRVNAELQARSNIWVAGDAACFYDIKLGRRRVEHHDHAVVSGRLAGENMTGAAKPYWHQSMFWSDLGPDVGYEAIGLVDSSLPTVGVFAKATAQDNPKSATEQSGTGIRSESETESEASEITIPPSAPAVPQVPVEGEDYGKGVIFYLRDKVVVGIVLWNVFNRMPIAAAIIADGEQHEDLNEVAKLFNIHED
With B1, the PAR binding entry in the assay on PAR [1] (His-tagged proteins, purified PAR, normalized to WT-AIF, result in words) is on record as “nearly abolished PAR-binding”. In the assay with PAR [1] (radioactive signal normalized to WT-AIF), the “reduced PAR binding” value was found to be 90%. Further, the “translocation to the nucleus after staurosporine” value in assay [2] is listed as “translocated to the nucleus”. For the same molecule, the “binding to 32P-PAR” value in the assay on PAR [3] is “failed to bind to ^32P-PAR”. Also, the PAR mobility shift result with PAR [4] is given as “no effect on PAR mobility”. Further, in the assay on isolated HeLa nuclei, the “chromatin condensation and nuclear shrinkage” value is “comparable levels of chromatin condensation and nuclear shrinkage”. Besides, the “pull-down with biotin-labeled PAR” value with PAR [5] is listed as “only a barely detectable amount”. Moreover, in the assay with isolated mitochondria, the “binding to mitochondria versus concentration” value is “bound to the mitochondria in a concentration dependent manner”, the “binding percentage to mitochondria over time” value was “equivalent” and the “depletion from the supernatant by mitochondria” value is listed as “effectively depleted”. Further, the “effect of PAR on association with mitochondria” value (from here on “effect of PAR on association”) in the assay with isolated mitochondria (5 nM PAR) is “failed to affect association”. The “effect of PAR on association” value in the assay with isolated mitochondria (50 nM PAR) is on record as “barely detectable effects”. For the same molecule, the “effect of PAR on association” value in the assay on isolated mitochondria (100 nM PAR) was “partially reduced mitochondrial binding”.

B2: WT-AIF: full length wild type mouse AIF (apoptosis-inducing factor), recombinant (protein)
chain: MFRCGGLAGAFKQKLVPLVRTVYVQRPKQRNRLPGNLFQQWRVPLELQMARQMASSGSSGGKMDNSVLVLIVGLSTIGAGAYAYKTIKEDQKRYNERVMGLGLSPEEKQRRAIASATEGGSVPQIRAPSHVPFLLIGGGTAAFAAARSIRARDPGARVLIVSEDPELPYMRPPLSKELWFSDDPNVTKTLQFRQWNGKERSIYFQPPSFYVSAQDLPNIENGGVAVLTGKKVVHLDVRGNMVKLNDGSQITFEKCLIATGGTPRSLSAIDRAGAEVKSRTTLFRKIGDFRALEKISREVKSITVIGGGFLGSELACALGRKSQASGIEVIQLFPEKGNMGKILPQYLSNWTMEKVKREGVKVMPNAIVQSVGVSGGRLLIKLKDGRKVETDHIVTAVGLEPNVELAKTGGLEIDSDFGGFRVNAELQARSNIWVAGDAACFYDIKLGRRRVEHHDHAVVSGRLAGENMTGAAKPYWHQSMFWSDLGPDVGYEAIGLVDSSLPTVGVFAKATAQDNPKSATEQSGTGIRSESETESEASEITIPPSAPAVPQVPVEGEDYGKGVIFYLRDKVVVGIVLWNVFNRMPIARKIIKDGEQHEDLNEVAKLFNIHED
In the case of B2, the “effect of hundred fold excess of salmon sperm DNA on PAR binding” value with PAR [1] (overlay assay, 32P-labeled PAR) is on record as “fails to disrupt”. For the same molecule, the “binding to biotin-labeled PAR” value in the assay on PAR [1] (overlay assay, affinity-purified biotin-labeled PAR) is reported as “bound to biotin-labeled PAR in a concentration-dependent manner”. The “effect of salmon sperm DNA on PAR binding” value in the assay on PAR [1] (salmon sperm DNA at 760 μM) is given as “failed to disrupt PAR binding”. Further, the “binding to 32P-PAR” value in the assay on PAR [3] is “bound to ^32P-PAR of different lengths”. Further, the PAR mobility shift entry in the assay on PAR [4] is reported as “caused a PAR mobility shift in a concentration-dependent manner”; with PAR [4] (listed as AIFm) it was “cause a shift of PAR polymer”. In the assay with isolated HeLa nuclei, the “chromatin condensation and nuclear shrinkage” value was “comparable levels of chromatin condensation and nuclear shrinkage”. For the same molecule, the “pull-down with biotin-labeled PAR” value in the assay on PAR [5] is “pulled down with biotin-labeled PAR”. Besides, the “binding to mitochondria versus concentration” value in the assay on isolated mitochondria is given as “bound to the mitochondria in a concentration dependent manner”. Moreover, in the assay with isolated mitochondria, the “binding percentage to mitochondria over time” value is “equivalent”. The “effect of PAR on association” value in the assay with isolated mitochondria (5 nM PAR) is given as “failed to affect association”; in the assay with isolated mitochondria (50 nM PAR), “increased the concentration of WT-AIF in the supernatant”; in the assay with isolated mitochondria (100 nM PAR) it was “almost completely abolished”. For the same molecule, the “depletion from the supernatant by mitochondria” value in the assay with isolated mitochondria is “effectively depleted”.

(Values after patent US20120122765A1, “COMPOUNDS AND RELATED METHODS FOR MANIPULATING PARP-1-DEPENDENT CELL DEATH” (priority 2010, published 2012).)
